Data published in paper PMC10267678 (2023).

B1: NJT3 (VHH)
VHH: QVQLVETGGGLAQAGGSLRLSCAASGRTLSGYAMGWFRQAPGKEREFVAAISWSGRNTYYDYTVQGRFTISKDNAKNTVNLQMNSLKPEDTAVYYCAVSRSLDEFGDGYEMDYWGDGTQVTVSS
modifications: biotin (BLI, IHC) or Alexa-647 (two-photon imaging) added at the C-terminus by sortase-mediated tagging
B2: NJT4 (VHH)
VHH: QVQLVESGGGLVQPGGSLRLSCAASGFTFSSYTMRWYRQAPGKERELVAFIGVAGGSTKYADSVKGRFTISRDNTKNTVYLQMNTLKPEDTAVYYCYAPLTPYWGQGTQVTVSS
modifications: biotin (BLI, IHC) or Alexa-647 (two-photon imaging) added at the C-terminus by sortase-mediated tagging
B3: NJT6 (VHH)
VHH: QVQLVETGGDLVQPGGSLRLSCAASGLTLDYYAIGWVRQAPGKEREGVSCITPQDGNTYYDDSVMGRFTILRDNAKNMVYLQMNNLKPEDTAVYFCAAAGALTLDPSEYEYWGQGTQVTVSS
modifications: biotin (BLI, IHC) or Alexa-647 (two-photon imaging) added at the C-terminus by sortase-mediated tagging

The binders below were run against T1, full-length human TNC protein (human, UniProt P24821 23-2201) (assay: BLI).
T1 sequence (P24821 23-2201): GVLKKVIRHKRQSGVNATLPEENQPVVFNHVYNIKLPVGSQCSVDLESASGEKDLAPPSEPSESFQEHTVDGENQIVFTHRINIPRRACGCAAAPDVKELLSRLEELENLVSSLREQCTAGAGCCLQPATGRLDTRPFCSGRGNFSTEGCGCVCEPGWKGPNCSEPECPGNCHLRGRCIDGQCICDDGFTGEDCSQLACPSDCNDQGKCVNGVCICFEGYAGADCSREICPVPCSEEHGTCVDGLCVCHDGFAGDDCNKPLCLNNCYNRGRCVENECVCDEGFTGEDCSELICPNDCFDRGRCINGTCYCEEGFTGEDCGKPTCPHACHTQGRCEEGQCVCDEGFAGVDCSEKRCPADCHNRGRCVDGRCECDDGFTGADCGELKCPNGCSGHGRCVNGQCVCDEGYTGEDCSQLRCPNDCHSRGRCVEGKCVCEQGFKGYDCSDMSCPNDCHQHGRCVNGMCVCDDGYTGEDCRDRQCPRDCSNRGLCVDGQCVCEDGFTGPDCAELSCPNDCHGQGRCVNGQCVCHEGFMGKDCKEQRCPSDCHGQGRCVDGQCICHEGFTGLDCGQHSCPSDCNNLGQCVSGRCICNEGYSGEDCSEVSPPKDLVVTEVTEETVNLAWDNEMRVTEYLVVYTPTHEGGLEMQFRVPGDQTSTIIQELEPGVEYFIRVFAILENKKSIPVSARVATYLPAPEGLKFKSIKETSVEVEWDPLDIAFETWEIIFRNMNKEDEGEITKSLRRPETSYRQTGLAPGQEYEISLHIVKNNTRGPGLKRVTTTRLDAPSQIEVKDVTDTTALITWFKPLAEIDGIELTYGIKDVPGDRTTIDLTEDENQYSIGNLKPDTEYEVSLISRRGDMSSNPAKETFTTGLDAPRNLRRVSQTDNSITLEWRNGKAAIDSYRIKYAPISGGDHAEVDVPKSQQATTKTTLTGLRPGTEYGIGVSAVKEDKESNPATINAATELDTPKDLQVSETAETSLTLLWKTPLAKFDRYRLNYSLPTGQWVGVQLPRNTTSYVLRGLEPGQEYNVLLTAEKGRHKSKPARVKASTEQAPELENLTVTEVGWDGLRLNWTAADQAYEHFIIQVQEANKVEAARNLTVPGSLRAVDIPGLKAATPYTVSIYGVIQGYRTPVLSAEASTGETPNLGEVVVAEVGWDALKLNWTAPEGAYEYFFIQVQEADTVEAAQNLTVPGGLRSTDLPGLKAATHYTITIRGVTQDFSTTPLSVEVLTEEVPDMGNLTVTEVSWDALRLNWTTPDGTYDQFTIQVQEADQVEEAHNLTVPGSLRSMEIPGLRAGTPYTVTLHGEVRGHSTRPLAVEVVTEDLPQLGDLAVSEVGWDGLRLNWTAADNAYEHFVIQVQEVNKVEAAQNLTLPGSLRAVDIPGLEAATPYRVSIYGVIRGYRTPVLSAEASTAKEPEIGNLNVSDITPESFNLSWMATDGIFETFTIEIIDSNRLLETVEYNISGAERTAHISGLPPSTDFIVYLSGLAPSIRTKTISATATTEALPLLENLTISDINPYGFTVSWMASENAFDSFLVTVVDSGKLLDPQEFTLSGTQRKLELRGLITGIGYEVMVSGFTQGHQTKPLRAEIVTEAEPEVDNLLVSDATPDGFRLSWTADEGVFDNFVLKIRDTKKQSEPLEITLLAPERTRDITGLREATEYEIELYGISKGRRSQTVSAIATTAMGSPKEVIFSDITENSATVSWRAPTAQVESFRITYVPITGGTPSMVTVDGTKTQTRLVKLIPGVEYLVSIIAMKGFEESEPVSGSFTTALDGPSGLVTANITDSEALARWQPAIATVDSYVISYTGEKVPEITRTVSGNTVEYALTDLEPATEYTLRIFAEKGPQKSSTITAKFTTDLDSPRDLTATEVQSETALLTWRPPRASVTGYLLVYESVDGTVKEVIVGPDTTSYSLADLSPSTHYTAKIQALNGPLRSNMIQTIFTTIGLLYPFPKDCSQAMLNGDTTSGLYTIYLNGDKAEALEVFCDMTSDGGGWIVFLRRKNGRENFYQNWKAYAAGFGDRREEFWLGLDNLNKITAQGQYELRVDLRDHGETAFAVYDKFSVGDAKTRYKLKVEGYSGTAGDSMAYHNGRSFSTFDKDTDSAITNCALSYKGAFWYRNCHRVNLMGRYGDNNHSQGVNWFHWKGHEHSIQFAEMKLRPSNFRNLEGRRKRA
A koff of 2.35e-07 s⁻¹ was found for B1 in this work. B2 was tested, and the koff was < 1e-07 s⁻¹. In the case of B3, the koff is reported as < 1e-07 s⁻¹.

Biological target: T1, full-length human TNC protein
Assay: BLI
Remark: another data set of the same source
A Kd of 1.47 pM was found for B1 in this work. For B2, the Kd was < 1 pM. In the case of B3, the Kd is reported as < 1 pM.
